{"source": "patent US20260201008A1", "about": "“SECRETIN-DERIVED GLP1R SELECTIVE AGONISTS” (GUBRA A/S, priority 2023, published 2026)", "binders": {"B1": {"name": "SEQ ID NO: 203 (peptide)", "peptide": "H[Aib]EGTFTSDVSYLK([AEEA-AEEA-γGlu-C20 diacid])EEA[Aib]LQRFLEHLV-NH2", "modifications": "also: table footnote: C20DA or C18DA"}, "B2": {"name": "SEQ ID NO: 168 (peptide)", "peptide": "H[Aib]EGTFTSDVSELK([AEEA-AEEA-γGlu-C20 diacid])EEA[Aib]LQRFLEHLV-NH2"}, "B3": {"name": "SEQ ID NO: 212 (peptide)", "peptide": "H[Aib]EGTFTSDVSRLLEEA[Aib]LQRFLEK([AEEA-AEEA-γGlu-C20 diacid])LVEAA-NH2"}, "B4": {"name": "SEQ ID NO: 209 (peptide)", "peptide": "H[Aib]EGTFTSDVSYLK([AEEA-AEEA-γGlu-C20 diacid])EEA[Aib]LQRFLEHLVEAA-NH2", "modifications": "N-terminus assumed", "SMILES": "CC(C)C[C@H](NC(=O)[C@H](Cc1ccccc1)NC(=O)[C@H](CCCNC(=N)N)NC(=O)[C@H](CCC(N)=O)NC(=O)[C@H](CC(C)C)NC(=O)C(C)(C)NC(=O)[C@H](C)NC(=O)[C@H](CCC(=O)O)NC(=O)[C@H](CCC(=O)O)NC(=O)[C@H](CCCCNC(=O)COCCOCCNC(=O)COCCOCCNC(=O)CC[C@H](NC(=O)CCCCCCCCCCCCCCCCCCC(=O)O)C(=O)O)NC(=O)[C@H](CC(C)C)NC(=O)[C@H](Cc1ccc(O)cc1)NC(=O)[C@H](CO)NC(=O)[C@@H](NC(=O)[C@H](CC(=O)O)NC(=O)[C@H](CO)NC(=O)[C@@H](NC(=O)[C@H](Cc1ccccc1)NC(=O)[C@@H](NC(=O)CNC(=O)[C@H](CCC(=O)O)NC(=O)C(C)(C)NC(=O)[C@@H](N)Cc1c[nH]cn1)[C@@H](C)O)[C@@H](C)O)C(C)C)C(=O)N[C@@H](CCC(=O)O)C(=O)N[C@@H](Cc1c[nH]cn1)C(=O)N[C@@H](CC(C)C)C(=O)N[C@H](C(=O)N[C@@H](CCC(=O)O)C(=O)N[C@@H](C)C(=O)N[C@@H](C)C(N)=O)C(C)C"}, "B5": {"name": "SEQ ID NO: 208 (peptide)", "peptide": "H[Aib]EGTFTSDVSRLK([AEEA-AEEA-γGlu-C20 diacid])EEA[Aib]LQRFLEHLVEAA-NH2"}, "B6": {"name": "SEQ ID NO: 213 (peptide)", "peptide": "H[Aib]EGTFTSDVSYLLEEA[Aib]LQRFLEK([AEEA-AEEA-γGlu-C20 diacid])LVEAA-NH2", "modifications": "N-terminus assumed", "SMILES": "CC(C)C[C@H](NC(=O)[C@H](CC(C)C)NC(=O)[C@H](Cc1ccc(O)cc1)NC(=O)[C@H](CO)NC(=O)[C@@H](NC(=O)[C@H](CC(=O)O)NC(=O)[C@H](CO)NC(=O)[C@@H](NC(=O)[C@H](Cc1ccccc1)NC(=O)[C@@H](NC(=O)CNC(=O)[C@H](CCC(=O)O)NC(=O)C(C)(C)NC(=O)[C@@H](N)Cc1c[nH]cn1)[C@@H](C)O)[C@@H](C)O)C(C)C)C(=O)N[C@@H](CCC(=O)O)C(=O)N[C@@H](CCC(=O)O)C(=O)N[C@@H](C)C(=O)NC(C)(C)C(=O)N[C@@H](CC(C)C)C(=O)N[C@@H](CCC(N)=O)C(=O)N[C@@H](CCCNC(=N)N)C(=O)N[C@@H](Cc1ccccc1)C(=O)N[C@@H](CC(C)C)C(=O)N[C@@H](CCC(=O)O)C(=O)N[C@@H](CCCCNC(=O)COCCOCCNC(=O)COCCOCCNC(=O)CC[C@H](NC(=O)CCCCCCCCCCCCCCCCCCC(=O)O)C(=O)O)C(=O)N[C@@H](CC(C)C)C(=O)N[C@H](C(=O)N[C@@H](CCC(=O)O)C(=O)N[C@@H](C)C(=O)N[C@@H](C)C(N)=O)C(C)C"}, "B7": {"name": "SEQ ID NO: 210 (peptide)", "peptide": "H[Aib]EGTFTSDVSELK([AEEA-AEEA-γGlu-C20 diacid])EEA[Aib]LQRFLEHLVEAA-NH2"}, "B8": {"name": "SEQ ID NO: 224 (peptide)", "peptide": "H[Aib]EGTFTSDLSELLEGAALQRFIQWLV-NH2", "modifications": "N-terminus assumed", "SMILES": "CC[C@H](C)[C@H](NC(=O)[C@H](Cc1ccccc1)NC(=O)[C@H](CCCNC(=N)N)NC(=O)[C@H](CCC(N)=O)NC(=O)[C@H](CC(C)C)NC(=O)[C@H](C)NC(=O)[C@H](C)NC(=O)CNC(=O)[C@H](CCC(=O)O)NC(=O)[C@H](CC(C)C)NC(=O)[C@H](CC(C)C)NC(=O)[C@H](CCC(=O)O)NC(=O)[C@H](CO)NC(=O)[C@H](CC(C)C)NC(=O)[C@H](CC(=O)O)NC(=O)[C@H](CO)NC(=O)[C@@H](NC(=O)[C@H](Cc1ccccc1)NC(=O)[C@@H](NC(=O)CNC(=O)[C@H](CCC(=O)O)NC(=O)C(C)(C)NC(=O)[C@@H](N)Cc1c[nH]cn1)[C@@H](C)O)[C@@H](C)O)C(=O)N[C@@H](CCC(N)=O)C(=O)N[C@@H](Cc1c[nH]c2ccccc12)C(=O)N[C@@H](CC(C)C)C(=O)N[C@H](C(N)=O)C(C)C"}, "B9": {"name": "SEQ ID NO: 223 (peptide)", "peptide": "H[Aib]EGTFTSDLS[Aib]LLEGAALQRFIQWLV-NH2", "modifications": "N-terminus assumed", "SMILES": "CC[C@H](C)[C@H](NC(=O)[C@H](Cc1ccccc1)NC(=O)[C@H](CCCNC(=N)N)NC(=O)[C@H](CCC(N)=O)NC(=O)[C@H](CC(C)C)NC(=O)[C@H](C)NC(=O)[C@H](C)NC(=O)CNC(=O)[C@H](CCC(=O)O)NC(=O)[C@H](CC(C)C)NC(=O)[C@H](CC(C)C)NC(=O)C(C)(C)NC(=O)[C@H](CO)NC(=O)[C@H](CC(C)C)NC(=O)[C@H](CC(=O)O)NC(=O)[C@H](CO)NC(=O)[C@@H](NC(=O)[C@H](Cc1ccccc1)NC(=O)[C@@H](NC(=O)CNC(=O)[C@H](CCC(=O)O)NC(=O)C(C)(C)NC(=O)[C@@H](N)Cc1c[nH]cn1)[C@@H](C)O)[C@@H](C)O)C(=O)N[C@@H](CCC(N)=O)C(=O)N[C@@H](Cc1c[nH]c2ccccc12)C(=O)N[C@@H](CC(C)C)C(=O)N[C@H](C(N)=O)C(C)C"}, "B10": {"name": "SEQ ID NO: 204 (peptide)", "peptide": "H[Aib]EGTFTSDVSRLK([AEEA-AEEA-γGlu-C18 diacid])EGAAEQRFLQHLVEAE-NH2"}, "B11": {"name": "SEQ ID NO: 214 (peptide)", "peptide": "H[Aib]EGTFTSDVSELLEEA[Aib]LQRFLEK([AEEA-AEEA-γGlu-C20 diacid])LVEAA-NH2"}, "B12": {"name": "SEQ ID NO: 211 (peptide)", "peptide": "H[Aib]EGTFTSDVSTLK([AEEA-AEEA-γGlu-C20 diacid])EEA[Aib]LQRFLEHLVEAA-NH2"}, "B13": {"name": "SEQ ID NO: 205 (peptide)", "peptide": "H[Aib]EGTFTSDVSRLK([AEEA-AEEA-γGlu-C18 diacid])EGAAEQRFLQHLVEAA-NH2"}, "B14": {"name": "SEQ ID NO: 206 (peptide)", "peptide": "H[Aib]EGTFTSDVSRLK([AEEA-AEEA-γGlu-C18 diacid])EGAAEQRFLQHLVAAE-NH2"}, "B15": {"name": "SEQ ID NO: 207 (peptide)", "peptide": "H[Aib]EGTFTSDVSRLK([AEEA-AEEA-γGlu-C20 diacid])EEAALQRFLEHLVEAA-NH2"}, "B16": {"name": "SEQ ID NO: 215 (peptide)", "peptide": "H[Aib]EGTFTSDVSRLK([AEEA-AEEA-γGlu-C20 diacid])EEA[Aib]AQRFLEHLVEAA-NH2"}}, "note": "Numbered stars: 1 amine (or outer) side, 2 acyl side, 3 side chain; on linkers, the order of the positions; unused ones are H or OH. Square brackets hold non-standard residues; d marks the D form. Side chains are listed from the residue outwards. Ends that are not written are not given here. * marks the point of attachment. C20 diacid = O=C(O)CCCCCCCCCCCCCCCCCCC(=O)*; C18 diacid = O=C(O)CCCCCCCCCCCCCCCCC(=O)*; γGlu = O=C(O)[C@H](CCC(=O)[*:2])N[*:1]; AEEA = NCCOCCOCC(=O)O; Aib = CC(C)(N)C(=O)O"}
{"target": "T1, human GLP-1 receptor (hGLP1R) (human, UniProt P43220 24-463)", "test": "cell-based or functional assay"}
{"binder": "B1", "pEC50 hGLPR1": "10.7 -log M"}
{"binder": "B2", "pEC50 hGLPR1": "11.2 -log M"}
{"target": "T2, human secretin receptor (hSCTR) (human, UniProt P47872 23-440)", "T2 sequence (P47872 23-440)": "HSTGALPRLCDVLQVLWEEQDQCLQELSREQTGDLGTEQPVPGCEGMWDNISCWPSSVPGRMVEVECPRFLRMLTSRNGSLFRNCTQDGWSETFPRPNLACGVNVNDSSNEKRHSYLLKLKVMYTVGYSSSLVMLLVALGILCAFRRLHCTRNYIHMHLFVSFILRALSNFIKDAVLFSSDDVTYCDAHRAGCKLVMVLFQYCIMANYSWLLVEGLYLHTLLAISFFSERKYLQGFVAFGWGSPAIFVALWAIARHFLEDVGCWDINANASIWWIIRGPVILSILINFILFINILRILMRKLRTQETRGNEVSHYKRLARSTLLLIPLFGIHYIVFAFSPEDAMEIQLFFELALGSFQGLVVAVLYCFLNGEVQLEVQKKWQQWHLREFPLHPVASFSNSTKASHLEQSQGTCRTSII", "test": "cell-based or functional assay"}
{"binder": "B1", "pEC50 hSCTR": "6.7 -log M"}
{"binder": "B2", "pEC50 hSCTR": "7.3 -log M"}
{"target": "T1, human GLP-1 receptor (hGLP1R)", "test": "cell-based or functional assay", "remark": "another data set of the same source", "units": {"hGLPR1 EC50 nM (purified peptide)": "nM"}}
{"binder": "B3", "hGLPR1 EC50 nM (purified peptide)": 0.021, "hGLPR1 PEC50 (purified peptide)": "10.7 -log M"}
{"binder": "B1", "hGLPR1 EC50 nM (purified peptide)": 0.017, "hGLPR1 PEC50 (purified peptide)": "10.8 -log M"}
{"binder": "B4", "hGLPR1 EC50 nM (purified peptide)": 0.0098, "hGLPR1 PEC50 (purified peptide)": "11 -log M"}
{"binder": "B5", "hGLPR1 EC50 nM (purified peptide)": 0.022, "hGLPR1 PEC50 (purified peptide)": "10.6 -log M"}
{"binder": "B6", "hGLPR1 EC50 nM (purified peptide)": 0.014, "hGLPR1 PEC50 (purified peptide)": "10.9 -log M"}
{"binder": "B7", "hGLPR1 EC50 nM (purified peptide)": 0.0095, "hGLPR1 PEC50 (purified peptide)": "11 -log M"}
{"binder": "B2", "hGLPR1 EC50 nM (purified peptide)": 0.012, "hGLPR1 PEC50 (purified peptide)": "10.9 -log M"}
{"target": "T2, human secretin receptor (hSCTR)", "test": "cell-based or functional assay", "remark": "another data set of the same source", "units": {"hSCTR EC50 nM (purified peptide)": "nM"}}
{"binder": "B3", "hSCTR EC50 nM (purified peptide)": 60, "hSCTR pEC50 (purified peptide)": "7.2 -log M"}
{"binder": "B1", "hSCTR EC50 nM (purified peptide)": 190, "hSCTR pEC50 (purified peptide)": "6.7 -log M"}
{"binder": "B4", "hSCTR EC50 nM (purified peptide)": 330, "hSCTR pEC50 (purified peptide)": "6.5 -log M"}
{"binder": "B5", "hSCTR EC50 nM (purified peptide)": 24, "hSCTR pEC50 (purified peptide)": "7.6 -log M"}
{"binder": "B6", "hSCTR EC50 nM (purified peptide)": 890, "hSCTR pEC50 (purified peptide)": "6.1 -log M"}
{"binder": "B7", "hSCTR EC50 nM (purified peptide)": 190, "hSCTR pEC50 (purified peptide)": "6.7 -log M"}
{"binder": "B2", "hSCTR EC50 nM (purified peptide)": 100, "hSCTR pEC50 (purified peptide)": "7 -log M"}
{"target": "T1, human GLP-1 receptor (hGLP1R)", "test": "cell-based or functional assay", "remark": "another data set of the same source"}
{"binder": "B8", "pEC50 hGLPR1": "10.9 -log M"}
{"binder": "B9", "pEC50 hGLPR1": "10.2 -log M"}
{"target": "T2, human secretin receptor (hSCTR)", "test": "cell-based or functional assay", "remark": "another data set of the same source"}
{"binder": "B8", "pEC50 hSCTR": "8.8 -log M"}
{"binder": "B9", "pEC50 hSCTR": "8.3 -log M"}
{"target": "T1, human GLP-1 receptor (hGLP1R)", "test": "cell-based or functional assay", "remark": "another data set of the same source"}
{"binder": "B3", "PEC50 hGLPR1": "10.7 -log M"}
{"binder": "B10", "PEC50 hGLPR1": "11 -log M"}
{"binder": "B4", "PEC50 hGLPR1": "10.9 -log M"}
{"binder": "B11", "PEC50 hGLPR1": "10.9 -log M"}
{"binder": "B12", "PEC50 hGLPR1": "11.2 -log M"}
{"binder": "B13", "PEC50 hGLPR1": "11.1 -log M"}
{"binder": "B5", "PEC50 hGLPR1": "10.6 -log M"}
{"binder": "B6", "PEC50 hGLPR1": "10.8 -log M"}
{"binder": "B7", "PEC50 hGLPR1": "11 -log M"}
{"binder": "B14", "PEC50 hGLPR1": "10.8 -log M"}
{"binder": "B15", "PEC50 hGLPR1": "11 -log M"}
{"binder": "B16", "PEC50 hGLPR1": "11 -log M"}
{"target": "T2, human secretin receptor (hSCTR)", "test": "cell-based or functional assay", "remark": "another data set of the same source"}
{"binder": "B3", "pEC50 hSCTR": "7.2 -log M"}
{"binder": "B10", "pEC50 hSCTR": "5.6 -log M"}
{"binder": "B4", "pEC50 hSCTR": "6.4 -log M"}
{"binder": "B11", "pEC50 hSCTR": "6.1 -log M"}
{"binder": "B12", "pEC50 hSCTR": "7.1 -log M"}
{"binder": "B13", "pEC50 hSCTR": "5.3 -log M"}
{"binder": "B5", "pEC50 hSCTR": "7.6 -log M"}
{"binder": "B6", "pEC50 hSCTR": "6 -log M"}
{"binder": "B7", "pEC50 hSCTR": "6.8 -log M"}
{"binder": "B14", "pEC50 hSCTR": "5.3 -log M"}
{"binder": "B15", "pEC50 hSCTR": "8.2 -log M"}
{"binder": "B16", "pEC50 hSCTR": "6.3 -log M"}
